Assay results: the supplement of paper PMC9170038

Test system: MS2 coat protein
Test: apparent KD of MS2 coat protein; designed switch direction (-1 OFF switch, 1 ON switch): -1; higher = weaker reporter binding
Method in brief: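 An oligonucleotide input, 200 uM small-molecule ligand, or no input was present during titration of SNAP-549-labelled MS2 coat protein, which was doubled from 0.7 or 1.5 nM to 3 µM. Designed RNA switches had been transcribed on Illumina chips by stalled E. coli RNA polymerase. Apparent KD per design is the median over clusters of curves fitted to normalised cluster fluorescence.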

[1] = Eterna round: R95, input ligand: FMN 200 uM
[2] = Eterna round: R95, input ligand: microRNA oligo, concentration not stated
[3] = Eterna round: R95, input ligand: none

Sequence	apparent KD of MS2 coat protein [1]	apparent KD of MS2 coat protein [2]	apparent KD of MS2 coat protein [3]	apparent KD of MS2 coat protein (input ligand: FMN 200 uM)	apparent KD of MS2 coat protein (input ligand: none)	apparent KD of MS2 coat protein (input ligand: microRNA oligo, concentration not stated)
AUAACGUGGGCGUCCCACGGCAAGCUUUUUGCUCGUUUGACAUGAGGAUCACCCAUGUAGCUGCGGGAUCCCUAUGA [Anatsobe] (puzzle: Sensor v3, turn-off variant 2)	17.6 nM	22.5 nM	15.2 nM			
AAGAUGUGAGGAUAUGUAUCGCAUAUAGAGCGAACACUAGGAUAGAAGGCACAUGAGGAUCACCCAUGUGAUCG [Eternabot (L2) Solution 73] (Eterna round: R97, puzzle: Exclusion 4)				39.9 nM	45.3 nM	
GUCAUCAAACAUGGGUGUAACAUGAGGAUCACCCAUGUUAUCAAGUUUUUUGCUCGUCUUAUAAUAAGUUUGAUGAC [Antenna 13 - Jieux - Sensor, turn-off variant 1] (Eterna round: R97, puzzle: Sensor, turn-off variant 1)				87.5 nM	97.6 nM	
GUGAAACAUGAGGAUCACCCAUGUGAGGAUAUGAUUUAGUAAUGAUGAAAGUAAAUAUUCAGAAGGCACAAUGG [Mat - Mod of JL D71] (puzzle: Exclusion 1)	74.2 nM	92.7 nM	90.2 nM			
CCGGAUAUGCAGGAUAUCGUAUCGGAGACGAUACGAGAAGGGUAUACAUGAGGAUCACCCAUGUGCCUUACCGG [Mat - Exclusion 6 - Eli Mod - D82] (puzzle: Exclusion 6)	23.3 nM	19 nM	20.7 nM			
GGUUGACAUGAGGAUCACCCAUGUGAGGAUAUGCGAGAGAAAAAAGUGAGGAAGAUAAGCAGAAGGCGCUGUCG [salish99-ex1_r3_013] (puzzle: Exclusion 1)	118 nM	178 nM	260 nM			
AAAACUGAAGGAUAUGCCAGGGUGAGAGCUGGUGACGUUUAACAUGAGGAUCACCCAUGUAGAAGGUCAAAACA [Usate] (puzzle: Exclusion 2)		12.6 nM				
AGAGACCGAGGAUAUCCCAGAACUCACAUGAGGAUCACCCAUGUGUAGAUUGGGUGUCACGGAGAAGGCGGAUCGC [EX5 C.21] (Eterna round: R97, puzzle: Exclusion 5)				14 nM	13.8 nM	
AUGAGACAUGAGGAUCACCCAUGUGAGGAUAUGUAUGGAUGAAGGAAAGAAUGAGAGAACAGAAGGCACGAAGA [JR_Exclu1_Sub064] (puzzle: Exclusion 1)	109 nM	98.9 nM	138 nM			
GUGUACAGAGGAUAUGCACGAGUAGUUACGAAAGUAACUACACAUGAGGAUCACCCAUGUAGAAGGCUGUACAC [Dot plot directed v1] (puzzle: Exclusion 2)		13.3 nM				
AAACCUGCCCAUGACCGCAAGCCUUUUGCUUGUCUUACCACAUGAGGAUCACCCAUGUGACAUGGGCUCCUUAUAAA [Solabixe] (puzzle: Sensor v3, turn-off variant 2)	14.1 nM	10.5 nM	13.5 nM			
CCACUGUCAGGAUAUCGUGCAUAACGUUUACAAUUUAUGUGCGAGAAGGGACAUGAGGAUCACCCAUGUAAACG [Omei Ex4 A28PK3] (Eterna round: R97, puzzle: Exclusion 4)				227 nM	203 nM	
UUAAAUCAUGUAGGAUAUGCGUGGCGAAGCUAUGCAGAAGGACAUGAGGAUCACCCAUGUGCUUGCGUCUGCGUACAGAUGCUA [JL ENG1 1.12] (Eterna round: R96, puzzle: Exclusion NG 1)				112 nM	63.7 nM	52.8 nM
UGCUAGUGAGGAUAUGCUGGAAUAAAGAUUUGACGUGGCGAACAUGAGGAUCACCCAUGUAGAAGGCACAAUAC [Ususedes] (puzzle: Exclusion 2)		12.1 nM				
